In article doi:10.1101/2021.12.21.473685 (bioRxiv, 2021):
One block for each molecule: values may come before it.

Assays:
[1] = biological target: PARylated PARP2 (human, UniProt Q9UGN5-2 1-570, poly(ADP-ribose) chains added by in vitro automodification; modified residues not stated); assay: ITC
[2] = biological target: ZnF(1-2-3)-BRCT PARP1 (Homo sapiens, UniProt P09874 1-494); assay: fluorescence polarization
[3] = biological target: PARP1 full length (Homo sapiens, UniProt P09874 1-1014); assay: fluorescence polarization
Chain of PARP1 full length (P09874 whole entry): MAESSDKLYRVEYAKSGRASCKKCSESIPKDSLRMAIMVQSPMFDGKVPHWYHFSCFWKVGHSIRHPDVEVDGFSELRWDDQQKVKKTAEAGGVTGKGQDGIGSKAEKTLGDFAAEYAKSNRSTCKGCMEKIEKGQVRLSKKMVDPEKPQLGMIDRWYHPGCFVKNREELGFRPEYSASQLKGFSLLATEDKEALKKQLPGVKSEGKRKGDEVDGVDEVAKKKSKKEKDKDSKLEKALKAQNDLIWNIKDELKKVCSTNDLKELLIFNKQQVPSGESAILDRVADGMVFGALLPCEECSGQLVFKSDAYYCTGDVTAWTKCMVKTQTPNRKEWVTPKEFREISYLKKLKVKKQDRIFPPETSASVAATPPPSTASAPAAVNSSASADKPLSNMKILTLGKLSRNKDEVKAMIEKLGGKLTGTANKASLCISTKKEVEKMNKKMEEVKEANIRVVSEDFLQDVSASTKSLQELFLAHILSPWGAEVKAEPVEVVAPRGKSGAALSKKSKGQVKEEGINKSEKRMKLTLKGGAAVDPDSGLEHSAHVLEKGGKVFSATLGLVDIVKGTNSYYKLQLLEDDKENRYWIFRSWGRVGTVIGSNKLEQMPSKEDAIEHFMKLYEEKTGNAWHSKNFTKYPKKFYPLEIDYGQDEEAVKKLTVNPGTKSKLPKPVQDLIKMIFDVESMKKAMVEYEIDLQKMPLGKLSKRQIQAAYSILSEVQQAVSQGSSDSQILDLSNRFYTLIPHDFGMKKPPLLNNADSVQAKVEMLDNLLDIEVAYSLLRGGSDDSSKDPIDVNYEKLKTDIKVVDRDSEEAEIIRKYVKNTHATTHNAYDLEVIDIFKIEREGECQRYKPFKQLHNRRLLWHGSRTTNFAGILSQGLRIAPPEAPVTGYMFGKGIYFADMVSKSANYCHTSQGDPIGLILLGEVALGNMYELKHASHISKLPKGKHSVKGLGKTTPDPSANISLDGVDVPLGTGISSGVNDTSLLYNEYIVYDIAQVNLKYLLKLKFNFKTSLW

Chain of ZnF(1-2-3)-BRCT PARP1 (P09874 1-494): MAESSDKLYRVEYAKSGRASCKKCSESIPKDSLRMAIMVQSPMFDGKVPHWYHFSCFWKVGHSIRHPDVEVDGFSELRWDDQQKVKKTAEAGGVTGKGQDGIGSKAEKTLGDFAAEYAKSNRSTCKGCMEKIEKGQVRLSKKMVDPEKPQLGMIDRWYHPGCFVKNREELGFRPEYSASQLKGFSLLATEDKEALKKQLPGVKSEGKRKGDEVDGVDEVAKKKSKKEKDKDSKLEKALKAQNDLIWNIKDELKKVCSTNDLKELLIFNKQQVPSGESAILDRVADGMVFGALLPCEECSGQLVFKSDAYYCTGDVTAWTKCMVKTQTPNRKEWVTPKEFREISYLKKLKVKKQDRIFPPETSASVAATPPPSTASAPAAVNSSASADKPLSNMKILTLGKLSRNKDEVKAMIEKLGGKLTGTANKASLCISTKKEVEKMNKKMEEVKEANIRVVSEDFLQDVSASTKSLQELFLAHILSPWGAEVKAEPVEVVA

Kd [1]: 2000 nM
Molecule: ZnF3 domain of PARP1 (domain or fragment)

Kd [1]: 3000 nM
Molecule: WGR domain of PARP1 (domain or fragment)

Kd [1]: 2000 nM
Molecule: BRCT domain of PARP1 (from UniProt P09874 385-476) (domain or fragment)

Molecule: GCTGGCTTCGTAAGAAGCCAGCTCGCGGTCAGCTTGCTGACCGCG (structured_DNA, 5'-phosphate (printed for unlabelled oligo)) [SSB DNA dumbbell 45-mer (5-FAM labelled)]
Kd [2]: ~70 nM
Kd [3]: ~64 nM

Kd [1]: 40 nM
B1: ZnF3-BRCT-WGR of PARP1 (domain or fragment)
chain: VDEVAKKKSKKEKDKDSKLEKALKAQNDLIWNIKDELKKVCSTNDLKELLIFNKQQVPSGESAILDRVADGMVFGALLPCEECSGQLVFKSDAYYCTGDVTAWTKCMVKTQTPNRKEWVTPKEFREISYLKKLKVKKQDRIFPPETSASVAATPPPSTASAPAAVNSSASADKPLSNMKILTLGKLSRNKDEVKAMIEKLGGKLTGTANKASLCISTKKEVEKMNKKMEEVKEANIRVVSEDFLQDVSASTKSLQELFLAHILSPWGAEVKAEPVEVVAPRGKSGAALSKKSKGQVKEEGINKSEKRMKLTLKGGAAVDPDSGLEHSAHVLEKGGKVFSATLGLVDIVKGTNSYYKLQLLEDDKENRYWIFRSWGRVGTVIGSNKLEQMPSKEDAIEHFMKLYEEKTGNAWHSKNFTKYPKKFYPLEIDYGQDEEAVKKLTVNPGT

B2: DSB DNA (5-FAM labelled) (dsDNA)
DNA 1: GCCTACCGGTTCGAATGGCAGC
DNA 2: GCTGCCATTCGAACCGGTAGGC
Kd [2]: ~88 nM
Kd [3]: ~15 nM
